Assay results: US20250295799A1 (Zymeworks, published 2025)

What was measured:
human glypican-3 (GPC3) [1] = biological target: T1, human glypican-3 (GPC3) (human, UniProt P51654 25-554); assay: flow cytometry on CHO-S cells transfected with human GPC3;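 also: antibody binding to transiently transfected CHO-S cells after 24 hours at 4 °C, read as geometric mean fluorescence of anti-human AF647 in live cells, fitted against antibody concentration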
T1 construct: Endogenous on JHH-7, JHH-5, HepG2 and NCI-H446 tumour cells, or transiently expressed on CHO-S cells from a pTT5 plasmid; also called hGPC3; huGPC3
Description: (§1) Briefly, CHO—S cells were transiently transfected for −24 hours with a pTT5-based expression plasmid encoding human GPC3 or cynomolgus monkey GPC3, 0.5 μg DNA per 1 million cells, using the Neon™ Transfection System (Thermo Fisher Scientific Corp., Waltham, MA), to transiently express human or cynomolgus monkey GPC3. Cells transfected with GFP were used as negative transfection controls. Following transfection, cells were seeded at 50,000 cells/well in V-bottom 96-well plates and treated with antibody for 24 hours at 4° C. to prevent internalization. […] Following incubation and washing, fluorescence was detected by flow cytometry on a BD LSRFortessa™ Cell Analyzer (BD Biosciences, Franklin Lake, NJ) with 1,000 minimum events collected per well. AF647/APC-A GeoMean (fluorescence signal geometric mean, proportional to anti-Human AF647 binding) in live cell population was plotted against antibody concentration using GraphPad Prism Version 9 (GraphPad Software, San Diego, CA). The Bmax and Kd values were derived from the “Specific binding with Hill slope” nonlinear regression curve fit in GraphPad Prism Version 9.

human glypican-3 (GPC3) [2] = biological target: T1, human glypican-3 (GPC3); assay: cell-based or functional assay
human glypican-3 (GPC3) [3] = biological target: T1, human glypican-3 (GPC3); assay: flow cytometry on JHH-5 cells (GPC3-mid);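 also: antibody binding to cells at 4 °C for 24 h, detected with anti-human AF647 as geometric mean fluorescence of live cells versus antibody concentration, fitted by specific binding with Hill slope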
Description: (§2) Briefly, cells were seeded at 50,000 cells/well in V-bottom 96-well plates and treated with antibody for 24 hours at 4° C. to prevent internalization. […] Following incubation and washing, fluorescence was detected by flow cytometry on a BD LSRFortessa™ Cell Analyzer (BD Biosciences, Franklin Lake, NJ) with 1,000 minimum events collected per well. AF647/APC-A GeoMean (fluorescence signal geometric mean, proportional to anti-Human AF647 binding) in live cell population was plotted against antibody concentration using GraphPad Prism Version 9 (GraphPad Software, San Diego, CA). The Bmax, Curve Hill Slope (h) and Kd values were derived from the “Specific binding with Hill slope” nonlinear regression curve fit in GraphPad Prism Version 9.

human glypican-3 (GPC3) [4] = biological target: T1, human glypican-3 (GPC3); assay: flow cytometry on JHH-7 cells (GPC3-high);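 also: antibody binding at 4 °C for 24 h, detected with anti-human AF647 secondary, geometric mean fluorescence of live cells versus antibody concentration, fitted as specific binding with Hill slope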
Description: as §2

[5] = biological target: T2, cynomolgus monkey glypican-3 (GPC3) (cynomolgus monkey, UniProt A5A6P7 25-554 (Pan troglodytes entry)); assay: flow cytometry on CHO-S cells transfected with cynomolgus GPC3;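 also: antibodies incubated 24 h at 4 °C with transiently transfected cells, binding read as AF647 geometric mean fluorescence of live cells, GFP-transfected cells as negative control, Hill-slope specific-binding fit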
T2 construct: Transiently expressed on CHO-S cells; also called cynoGPC3; CynoGPC3-CHO
Description: as §1

[6] = biological target: T3, recombinant human GPC3 (glypican-3) (human, UniProt P51654 25-559); assay: SPR (Biacore T200), antibody captured by anti-Fc, GPC3 injected, single-cycle kinetics, 1:1 fit; average
T3 construct: also called huGPC3; hGPC3
Description: (§3) CM5 Series S sensor chip, Biacore™ amine coupling kit (NHS, EDC and 1 M ethanolamine), and 10 mM sodium acetate buffers were purchased from Cytiva Life Sciences (Mississauga, ON, Canada). PBS running buffer with 0.05% Tween20 (PBST) was purchased from Teknova Inc. (Hollister, CA). Antigens: recombinant human and cynomolgus GPC3 was purchased from ACROBiosystems (Newark, DE) and SEC purified on a Superdex 200 10/300 GL column (Cytiva) in PBST running buffer at 0.8 mL/min.
(§4) Screening of the antibodies for binding to GPC3 antigen was conducted via anti-Fc capture of antibodies, followed by the injection of five concentrations of GPC3. The anti-Fc surface was prepared on a CM5 Series S sensor chip by standard amine coupling methods as described by the manufacturer (Cytiva Life Sciences, Mississauga, ON, Canada). […] Approximately 150-400 RUs of each antibody (5-20 μg/mL) were captured on the goat anti-human IgG surface by injecting at 10 μL/min for 60s. Using single-cycle kinetics, five concentrations of a two-fold dilution series of human or cynomolgus GPC3 starting at 40 nM, 20 nM, 10 nM, or 5 nM depending on the antibody, with a blank buffer control were injected at 20 μL/min for 180s of contact time, followed by 180 s dissociation phase, resulting in sensorgrams with a buffer blank reference. The anti-Fc surface was regenerated to prepare for the next injection cycle by one pulse of 10 mM glycine/HCl pH 1.5 for 120 s at 40 μL/min. Blank-subtracted sensorgrams were analyzed and fit to the 1:1 Langmuir binding model using Biacore™ T200 Evaluation Software v3.2.

[7] = biological target: T3, recombinant human GPC3 (glypican-3); assay: SPR (Biacore T200), antibody captured by anti-Fc, GPC3 injected
Description: as §3, §4

[8] = biological target: T4, recombinant cynomolgus GPC3 (glypican-3) (cynomolgus monkey, UniProt A0A2K5VK50 24-558); assay: SPR (Biacore T200), antibody captured by anti-Fc, GPC3 injected, single-cycle kinetics, 1:1 fit; average
T4 construct: also called cynoGPC3
Description: as §3, §4
For JHH-5 Internalization (MFI) in this document: test concentration or dose not given here.
For JHH-7 Internalization (MFI) in this document: test concentration or dose not given here.

Binder	Bmax (MFI) (human glypican-3 (GPC3) [1])	Kd (human glypican-3 (GPC3) [1]) [nM]	JHH-5 Internalization (MFI) (human glypican-3 (GPC3) [2])	JHH-7 Internalization (MFI) (human glypican-3 (GPC3) [2])	Bmax (MFI) (human glypican-3 (GPC3) [3])	Kd (human glypican-3 (GPC3) [3]) [nM]	Bmax (MFI) (human glypican-3 (GPC3) [4])	Kd (human glypican-3 (GPC3) [4]) [nM]	Bmax (MFI) [5] [MFI]	Kd [5] [nM]	Kd [6] [nM]	Avg % binding huGPC3 (RU observed/theoretical) [7] [%]	Kd [8] [nM]
codrituzumab (v37575) (antibody, human IgG1, kappa, V domains shown, also called GC33; RG-7686) VH: QVQLVQSGAEVKKPGASVKVSCKASGYTFTDYEMHWVRQAPGQGLEWMGALDPKTGDTAYSQKFKGRVTLTADKSTSTAYMELSSLTSEDTAVYYCTRFYSYTYWGQGTLVTVSS VL: DVVMTQSPLSLPVTPGEPASISCRSSQSLVHSNRNTYLHWYLQKPGQSPQLLIYKVSNRFSGVPDRFSGSGSGTDFTLKISRVEAEDVGVYYCSQNTHVPPTFGQGTKLEIKR	2660	0.08	8770	6560	5590	0.19	14800	0.31	3280	0.09	–	–	–
H18L6_LC_G34H mAb, v40205 (antibody, human IgG1, kappa, V domains shown, M3-H18L6 chains with the stated light chain point mutation, IgG1/kappa) VH: QVQLVQSGAEVKKPGSSVKVSCKASGYTFTDYEMHWVKQAPGHGLEWIGAIDPETGDTAYNQKFKGKATLTADTSTSTAYMELSSLRSEDTAVYYCTRYFSFAYWGQGTLVTVSS VL: EIVLTQSPATLSLSPGERATISCRSSQSLRHSNHNTYLQWYQQKPGQAPRLLIYKVSNRFSGVPARFSGSGSGTDFTLTISSLEPEDFAVYFCYQSKHVPYTFGGGTKVEIKR	2460	0.1	9170	7320	4580	0.16	12500	0.43	2990	0.14	–	–	–
H18L6_LC_N33T mAb, v40214 (antibody, human IgG1, kappa, V domains shown, M3-H18L6 chains with the stated light chain point mutation, IgG1/kappa) VH: QVQLVQSGAEVKKPGSSVKVSCKASGYTFTDYEMHWVKQAPGHGLEWIGAIDPETGDTAYNQKFKGKATLTADTSTSTAYMELSSLRSEDTAVYYCTRYFSFAYWGQGTLVTVSS VL: EIVLTQSPATLSLSPGERATISCRSSQSLRHSTGNTYLQWYQQKPGQAPRLLIYKVSNRFSGVPARFSGSGSGTDFTLTISSLEPEDFAVYFCYQSKHVPYTFGGGTKVEIKR	–	–	–	–	–	–	9990	0.75	–	–	–	–	–
H18L6_LC_N33S mAb, v40221 (antibody, human IgG1, kappa, V domains shown, M3-H18L6 chains with the stated light chain point mutation, IgG1/kappa) VH: QVQLVQSGAEVKKPGSSVKVSCKASGYTFTDYEMHWVKQAPGHGLEWIGAIDPETGDTAYNQKFKGKATLTADTSTSTAYMELSSLRSEDTAVYYCTRYFSFAYWGQGTLVTVSS VL: EIVLTQSPATLSLSPGERATISCRSSQSLRHSSGNTYLQWYQQKPGQAPRLLIYKVSNRFSGVPARFSGSGSGTDFTLTISSLEPEDFAVYFCYQSKHVPYTFGGGTKVEIKR	–	–	–	–	–	–	7220	0.79	–	–	–	–	–
H18L6_LC_N33A mAb, v40219 (antibody, human IgG1, kappa, V domains shown, M3-H18L6 chains with the stated light chain point mutation, IgG1/kappa) VH: QVQLVQSGAEVKKPGSSVKVSCKASGYTFTDYEMHWVKQAPGHGLEWIGAIDPETGDTAYNQKFKGKATLTADTSTSTAYMELSSLRSEDTAVYYCTRYFSFAYWGQGTLVTVSS VL: EIVLTQSPATLSLSPGERATISCRSSQSLRHSAGNTYLQWYQQKPGQAPRLLIYKVSNRFSGVPARFSGSGSGTDFTLTISSLEPEDFAVYFCYQSKHVPYTFGGGTKVEIKR	–	–	–	–	–	–	7870	0.62	–	–	–	–	–
H18L6_LC_G34V mAb, v40211 (antibody, human IgG1, kappa, V domains shown, M3-H18L6 chains with the stated light chain point mutation, IgG1/kappa) VH: QVQLVQSGAEVKKPGSSVKVSCKASGYTFTDYEMHWVKQAPGHGLEWIGAIDPETGDTAYNQKFKGKATLTADTSTSTAYMELSSLRSEDTAVYYCTRYFSFAYWGQGTLVTVSS VL: EIVLTQSPATLSLSPGERATISCRSSQSLRHSNVNTYLQWYQQKPGQAPRLLIYKVSNRFSGVPARFSGSGSGTDFTLTISSLEPEDFAVYFCYQSKHVPYTFGGGTKVEIKR	2100	0.11	3560	3330	2940	0.24	7420	0.4	2640	0.17	–	–	–
H18L6_LC_N33R mAb, v40216 (antibody, human IgG1, kappa, V domains shown, M3-H18L6 chains with the stated light chain point mutation, IgG1/kappa) VH: QVQLVQSGAEVKKPGSSVKVSCKASGYTFTDYEMHWVKQAPGHGLEWIGAIDPETGDTAYNQKFKGKATLTADTSTSTAYMELSSLRSEDTAVYYCTRYFSFAYWGQGTLVTVSS VL: EIVLTQSPATLSLSPGERATISCRSSQSLRHSRGNTYLQWYQQKPGQAPRLLIYKVSNRFSGVPARFSGSGSGTDFTLTISSLEPEDFAVYFCYQSKHVPYTFGGGTKVEIKR	–	–	–	–	–	–	9650	0.67	–	–	–	–	–
H18L6_LC_N33V mAb, v40215 (antibody, human IgG1, kappa, V domains shown, M3-H18L6 chains with the stated light chain point mutation, IgG1/kappa) VH: QVQLVQSGAEVKKPGSSVKVSCKASGYTFTDYEMHWVKQAPGHGLEWIGAIDPETGDTAYNQKFKGKATLTADTSTSTAYMELSSLRSEDTAVYYCTRYFSFAYWGQGTLVTVSS VL: EIVLTQSPATLSLSPGERATISCRSSQSLRHSVGNTYLQWYQQKPGQAPRLLIYKVSNRFSGVPARFSGSGSGTDFTLTISSLEPEDFAVYFCYQSKHVPYTFGGGTKVEIKR	–	–	–	–	–	–	9540	1.01	–	–	–	–	–
H18L6_LC_N33H mAb, v40218 (antibody, human IgG1, kappa, V domains shown, M3-H18L6 chains with the stated light chain point mutation, IgG1/kappa) VH: QVQLVQSGAEVKKPGSSVKVSCKASGYTFTDYEMHWVKQAPGHGLEWIGAIDPETGDTAYNQKFKGKATLTADTSTSTAYMELSSLRSEDTAVYYCTRYFSFAYWGQGTLVTVSS VL: EIVLTQSPATLSLSPGERATISCRSSQSLRHSHGNTYLQWYQQKPGQAPRLLIYKVSNRFSGVPARFSGSGSGTDFTLTISSLEPEDFAVYFCYQSKHVPYTFGGGTKVEIKR	–	–	–	–	–	–	8070	0.77	–	–	–	–	–
H18L6_LC_G34T mAb, v40209 (antibody, human IgG1, kappa, V domains shown, M3-H18L6 chains with the stated light chain point mutation, IgG1/kappa) VH: QVQLVQSGAEVKKPGSSVKVSCKASGYTFTDYEMHWVKQAPGHGLEWIGAIDPETGDTAYNQKFKGKATLTADTSTSTAYMELSSLRSEDTAVYYCTRYFSFAYWGQGTLVTVSS VL: EIVLTQSPATLSLSPGERATISCRSSQSLRHSNTNTYLQWYQQKPGQAPRLLIYKVSNRFSGVPARFSGSGSGTDFTLTISSLEPEDFAVYFCYQSKHVPYTFGGGTKVEIKR	2320	0.11	9280	9040	4130	0.11	10900	0.42	2840	0.14	–	–	–
H18L6_LC_N33D mAb, v40222 (antibody, human IgG1, kappa, V domains shown, M3-H18L6 chains with the stated light chain point mutation, IgG1/kappa) VH: QVQLVQSGAEVKKPGSSVKVSCKASGYTFTDYEMHWVKQAPGHGLEWIGAIDPETGDTAYNQKFKGKATLTADTSTSTAYMELSSLRSEDTAVYYCTRYFSFAYWGQGTLVTVSS VL: EIVLTQSPATLSLSPGERATISCRSSQSLRHSDGNTYLQWYQQKPGQAPRLLIYKVSNRFSGVPARFSGSGSGTDFTLTISSLEPEDFAVYFCYQSKHVPYTFGGGTKVEIKR	–	–	–	–	–	–	–	> 47	–	–	–	–	–
H18L6_LC_N33Q mAb, v40220 (antibody, human IgG1, kappa, V domains shown, M3-H18L6 chains with the stated light chain point mutation, IgG1/kappa) VH: QVQLVQSGAEVKKPGSSVKVSCKASGYTFTDYEMHWVKQAPGHGLEWIGAIDPETGDTAYNQKFKGKATLTADTSTSTAYMELSSLRSEDTAVYYCTRYFSFAYWGQGTLVTVSS VL: EIVLTQSPATLSLSPGERATISCRSSQSLRHSQGNTYLQWYQQKPGQAPRLLIYKVSNRFSGVPARFSGSGSGTDFTLTISSLEPEDFAVYFCYQSKHVPYTFGGGTKVEIKR	–	–	–	–	–	–	7220	0.67	–	–	–	–	–
H18L6_LC_N33E mAb, v40213 (antibody, human IgG1, kappa, V domains shown, M3-H18L6 chains with the stated light chain point mutation, IgG1/kappa) VH: QVQLVQSGAEVKKPGSSVKVSCKASGYTFTDYEMHWVKQAPGHGLEWIGAIDPETGDTAYNQKFKGKATLTADTSTSTAYMELSSLRSEDTAVYYCTRYFSFAYWGQGTLVTVSS VL: EIVLTQSPATLSLSPGERATISCRSSQSLRHSEGNTYLQWYQQKPGQAPRLLIYKVSNRFSGVPARFSGSGSGTDFTLTISSLEPEDFAVYFCYQSKHVPYTFGGGTKVEIKR	1860	0.25	1200	1220	1940	3.39	–	–	2320	0.22	–	–	–
H18L6_LC_G34S mAb, v40210 (antibody, human IgG1, kappa, V domains shown, M3-H18L6 chains with the stated light chain point mutation, IgG1/kappa) VH: QVQLVQSGAEVKKPGSSVKVSCKASGYTFTDYEMHWVKQAPGHGLEWIGAIDPETGDTAYNQKFKGKATLTADTSTSTAYMELSSLRSEDTAVYYCTRYFSFAYWGQGTLVTVSS VL: EIVLTQSPATLSLSPGERATISCRSSQSLRHSNSNTYLQWYQQKPGQAPRLLIYKVSNRFSGVPARFSGSGSGTDFTLTISSLEPEDFAVYFCYQSKHVPYTFGGGTKVEIKR	2360	0.06	8950	8900	4140	0.1	10600	0.42	2970	0.09	–	–	–
H18L6_LC_N33K mAb, v40217 (antibody, human IgG1, kappa, V domains shown, M3-H18L6 chains with the stated light chain point mutation, IgG1/kappa) VH: QVQLVQSGAEVKKPGSSVKVSCKASGYTFTDYEMHWVKQAPGHGLEWIGAIDPETGDTAYNQKFKGKATLTADTSTSTAYMELSSLRSEDTAVYYCTRYFSFAYWGQGTLVTVSS VL: EIVLTQSPATLSLSPGERATISCRSSQSLRHSKGNTYLQWYQQKPGQAPRLLIYKVSNRFSGVPARFSGSGSGTDFTLTISSLEPEDFAVYFCYQSKHVPYTFGGGTKVEIKR	–	–	–	–	–	–	9230	0.56	–	–	–	–	–
v38592, M3-H18L6 (WT) mAb (antibody, human IgG1, kappa, Same as v37574 but the heavy chain cDNA encodes a C-terminal lysine; also called wild-type M3-H18L6) heavy: not shown light: EIVLTQSPATLSLSPGERATISCRSSQSLRHSNGNTYLQWYQQKPGQAPRLLIYKVSNRFSGVPARFSGSGSGTDFTLTISSLEPEDFAVYFCYQSKHVPYTFGGGTKVEIKRTVAAPSVFIFPPSDEQLKSGTASVVCLLNNFYPREAKVQWKVDNALQSGNSQESVTEQDSKDSTYSLSSTLTLSKADYEKHKVYACEVTHQGLSSPVTKSFNRGEC	–	–	–	–	–	–	–	–	–	–	7.14	51.9	4.54
